Legend:
Experiment in all cases: co-IP with anti-FLAG, mass spectrometry; N-FLAG B3GNT2
[1] = biological target: T1, HBA1 (UniProt P69905 2-142)
T1 construct: Protein found in the co-IP by mass spectrometry; also called NP_000549.1
Protocol: (§1) Cells were plated in 10-cm cell culture dishes and grown to 60-80% confluency. For each condition, two biological replicates were harvested for co-IP. Cells were washed with PBS and 4 mL of lysis buffer (20 mM HEPES, 1% Triton X-100, 150 mM NaCl, 1 mM EDTA, and 10% glycerol) containing protease inhibitor cocktail was added. Cells were scraped and lysate was incubated at 4° C. under rotary agitation for 1 h. Lysate was centrifuged at 14,000×g for 10 min at 4° C. Supernatant was transferred to a new tube and an aliquot was taken as the input. […] For Western blots, 10 μg/mL Chicken Anti-FLAG (Aves labs ET-DY100) and IgY control (R&D Systems AB-101-C) antibodies were biotinylated (Thermo Fisher Scientific 90407) and added to the respective conditions. Lysates with antibodies were incubated at 4° C. under rotary agitation overnight. For each mL of lysate, 50 μL of Pierce Protein A/G Magnetic Beads (Mass spectrometry; Thermo Fisher Scientific 88803) or Pierce Streptavidin Magnetic Beads (Western blot; Thermo Fisher Scientific 88817) was washed twice with lysis buffer. Lysates with antibodies were added to the beads and incubated at 4° C. under rotary agitation for 4 h. Beads were washed with lysis buffer 3 times and resuspended in lysis buffer for storage.
(§2) Magnetic beads were resuspended in 100 mM Tris pH 7.8, reduced, alkylated and digested with trypsin at 37° ° C. overnight. This solution was subjected to solid phase extraction to concentrate the peptides and remove unwanted reagents followed by injection onto a Shimadzu HPLC with fraction collector. Eight fractions were collected and after concentration were injected on a Waters NanoAcquity HPLC equipped with a self-packed Aeris 3 μm C18 analytical column 0.075 mm by 20 cm, (Phenomenex). Peptides were eluted using standard reverse-phase gradients. The effluent from the column was analyzed using a Thermo Orbitrap Elite mass spectrometer (nanospray configuration) operated in a data dependent manner for 54 minutes. The resulting fragmentation spectra were correlated against the known database using Proteome Discover 1.4 (Thermo Fisher Scientific).

[2] = biological target: T2, CTSD (UniProt P07339 65-412, limits assumed)
T2 construct: Endogenous protein found in the co-IP by mass spectrometry; also called NP_001900.1
T2 sequence (P07339 65-412 limits assumed): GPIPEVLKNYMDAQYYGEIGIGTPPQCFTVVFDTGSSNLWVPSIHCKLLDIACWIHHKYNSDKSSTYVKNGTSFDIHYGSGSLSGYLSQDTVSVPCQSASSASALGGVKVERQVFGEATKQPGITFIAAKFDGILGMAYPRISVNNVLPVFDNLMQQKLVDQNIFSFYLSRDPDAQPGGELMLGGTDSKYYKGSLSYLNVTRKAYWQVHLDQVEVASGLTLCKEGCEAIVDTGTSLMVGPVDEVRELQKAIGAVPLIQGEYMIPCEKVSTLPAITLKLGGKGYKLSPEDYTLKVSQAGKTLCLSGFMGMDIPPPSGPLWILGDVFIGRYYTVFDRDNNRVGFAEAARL
Protocol: as §1, §2

[3] = biological target: SLIRP (UniProt Q9GZT3 1-109)
Protocol: as §1, §2

[4] = biological target: RPL11 (UniProt P62913 2-177)
Protocol: as §1, §2

[5] = biological target: T3, TPI1 (UniProt P60174 2-249)
T3 construct: Endogenous protein found in the co-IP by mass spectrometry; also called NP_000356.1 (+2)
T3 sequence (P60174 2-249 limits assumed): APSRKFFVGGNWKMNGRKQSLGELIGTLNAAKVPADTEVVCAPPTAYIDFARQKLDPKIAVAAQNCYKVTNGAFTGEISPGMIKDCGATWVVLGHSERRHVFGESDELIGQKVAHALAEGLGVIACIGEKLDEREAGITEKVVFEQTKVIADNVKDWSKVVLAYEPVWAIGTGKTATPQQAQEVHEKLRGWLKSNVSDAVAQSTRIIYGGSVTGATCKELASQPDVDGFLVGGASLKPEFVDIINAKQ
Protocol: as §1, §2

[6] = biological target: RPL35A (UniProt P18077 1-110)
Protocol: as §1, §2

[7] = biological target: T4, EEF1A1 (UniProt P68104 2-462)
T4 construct: Endogenous protein found in the co-IP by mass spectrometry; also called NP_001393.1
T4 sequence (looked up): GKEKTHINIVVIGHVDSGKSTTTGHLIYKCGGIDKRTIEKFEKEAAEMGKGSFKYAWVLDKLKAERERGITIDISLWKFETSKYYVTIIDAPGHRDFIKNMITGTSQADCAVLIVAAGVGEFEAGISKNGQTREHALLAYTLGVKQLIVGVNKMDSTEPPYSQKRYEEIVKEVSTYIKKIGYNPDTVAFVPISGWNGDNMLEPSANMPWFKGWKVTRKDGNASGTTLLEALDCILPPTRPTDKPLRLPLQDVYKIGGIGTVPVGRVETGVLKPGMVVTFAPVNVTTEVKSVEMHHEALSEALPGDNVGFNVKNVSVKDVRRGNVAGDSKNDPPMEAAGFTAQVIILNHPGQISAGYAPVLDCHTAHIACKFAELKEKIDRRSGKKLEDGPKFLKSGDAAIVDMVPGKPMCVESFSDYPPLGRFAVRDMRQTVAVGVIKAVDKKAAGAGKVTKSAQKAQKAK
Protocol: as §1, §2

[8] = biological target: T5, RCC2 (UniProt Q9P258 1-522)
T5 construct: Endogenous protein found in the co-IP by mass spectrometry; also called NP_061185.1
T5 sequence (Q9P258 whole entry): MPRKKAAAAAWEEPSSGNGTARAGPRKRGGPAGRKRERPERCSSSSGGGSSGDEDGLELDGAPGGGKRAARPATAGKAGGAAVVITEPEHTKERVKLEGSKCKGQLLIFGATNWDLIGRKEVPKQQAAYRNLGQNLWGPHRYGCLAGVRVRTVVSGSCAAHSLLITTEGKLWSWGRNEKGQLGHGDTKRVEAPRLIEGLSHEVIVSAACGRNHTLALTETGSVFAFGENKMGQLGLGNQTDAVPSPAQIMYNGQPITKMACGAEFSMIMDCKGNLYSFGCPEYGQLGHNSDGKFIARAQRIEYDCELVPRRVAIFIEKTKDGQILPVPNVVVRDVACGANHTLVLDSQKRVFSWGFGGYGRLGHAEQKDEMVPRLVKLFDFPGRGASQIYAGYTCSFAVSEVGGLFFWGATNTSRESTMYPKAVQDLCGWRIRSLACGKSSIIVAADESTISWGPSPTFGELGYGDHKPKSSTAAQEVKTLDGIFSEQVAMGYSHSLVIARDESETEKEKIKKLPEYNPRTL
Protocol: as §1, §2

T1 sequence (P69905 2-142 limits assumed): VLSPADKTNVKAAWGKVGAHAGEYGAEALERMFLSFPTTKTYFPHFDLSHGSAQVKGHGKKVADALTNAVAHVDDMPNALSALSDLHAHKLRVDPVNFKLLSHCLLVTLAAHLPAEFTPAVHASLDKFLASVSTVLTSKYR

co-IP mass spectrometry count [1]: 3
co-IP mass spectrometry count [2]: 3
co-IP mass spectrometry count [3]: 0
co-IP mass spectrometry count [4]: 5
co-IP mass spectrometry count [5]: 3
co-IP mass spectrometry count [6]: 0
co-IP mass spectrometry count [7]: 13
co-IP mass spectrometry count [8]: 0
B1: N-terminal FLAG tagged B3GNT2 (enzyme, human, UniProt Q9NY97 1-397, looked up)
chain: MSVGRRRIKLLGILMMANVFIYFIMEVSKSSSQEKNGKGEVIIPKEKFWKISTPPEAYWNREQEKLNRQYNPILSMLTNQTGEAGRLSNISHLNYCEPDLRVTSVVTGFNNLPDRFKDFLLYLRCRNYSLLIDQPDKCAKKPFLLLAIKSLTPHFARRQAIRESWGQESNAGNQTVVRVFLLGQTPPEDNHPDLSDMLKFESEKHQDILMWNYRDTFFNLSLKEVLFLRWVSTSCPDTEFVFKGDDDVFVNTHHILNYLNSLSKTKAKDLFIGDVIHNAGPHRDKKLKYYIPEVVYSGLYPPYAGGGGFLYSGHLALRLYHITDQVHLYPIDDVYTGMCLQKLGLVPEKHKGFRTFDIEEKNKNNICSYVDLMLVHSRKPQEMIDIWSQLQSAHLKC
notes: FLAG-tagged ORF overexpressed in cells; bait of the anti-FLAG co-IP; also called N-FLAG B3GNT2; N-term FLAG; not shown: FLAG tag at the N-terminus

Reference: patent US20240261333A1 (published 2024)
